In patent US5834428A, “Glucagon-like peptide-2 and its therapeutic use” (1149336 Ontario Inc., priority 1996, dated 1998):
Values joined by “and” are separate entries in the source; they are usually repeats but may differ in a detail not shown here. Equal entries are not always repeated. Ends that are not written are not given here.

B1: Glicentin: glicentin (rat), proglucagon gene-derived peptide (peptide, UniProt P06883 21-89, looked up)
Glicentin: HAPQDTEENARSFPASQTEPLEDPDQINEDKRHSQGTFTSDYSKYLDSRRAQDFVQWLMNTKRNRNNIA
modifications: Glicentin
notes: glicentin (rat), proglucagon gene-derived peptide

Columns and labels:
[1] = Weight of mice during 10-day peptide treatment (Example 1); assay type: in vivo; details: individual mice
Protocol: (§1) In a first experiment designed to investigate the effect of glicentin on small bowel growth, two groups of six mice (8 week, CD1 females from Charles River Laboratories) were treated as follows. Each mouse received 41.5 μg injections every 12 hours for 10 days. The injections were delivered subcutaneously in a final volume of 16% gelatin, with 0.5 cc injected subcutaneously every 12 hours. […] Control mice received 0.5 cc of 16% gelatin solution, but no peptide, every 12 hours. Mice were fed standard rat chow with free access to food and water, until 12 hours prior to sacrifice, at which time food was withheld, and water only was given. The weight of the small bowel was ascertained by excising the entire small bowel, and removing the stomach (proximal end) and appendix/cecum/large bowel (distal end). The remaining small bowel was cleaned with saline to remove feces, and weighed.
(§2) Mice were injected with 0.5 ml of the 16% gelatin solution, without or with peptide (62.5 μg/dose). Four groups of four mice (8 week, CD1 females from Charles River Laboratories) were injected twice daily for 10 days.

[2] = Complete autopsy after long term administration; assay type: in vivo, mice; details: 5 μg once a day s.c. in 10% gelatin for 4, 8 or 12 weeks
Protocol: Effect of Long Term Administration: Rat GLP-2 in a 10% gelatin formulation was administered s.c. in a single dose of 5 μg once a day continuously for 4 weeks (panel A), for 8 weeks (panel B) or for 12 weeks (panel C). FIG. 5 illustrates GLP-2 mediated effects on small bowel weight (BW) and in the crypt plus villus heights (PJ, DJ and DI) in treated groups (T), relative to a control (C) receiving 10% gelatin alone. […] A similar response was noted also for the distal jejunum.

small bowel = assay: Small bowel weight in mice after 10 days of s.c. peptide in 16% gelatin (Example 1); assay type: in vivo; details: for Small bowel weight Day 10: individual mice
Protocol: as §1, with “weighed. Results were as follows:” for “weighed.”
GLP-2 formulations for injection were prepared as follows: Gelatin was dissolved in warm water to a weight ratio of 16%, and the 50 mL solution was autoclaved and cooled to room temperature. A peptide solution was then separately prepared by mixing 5 mg of GLP-2 with water at a volume slightly less than 10 mL, and then adding 1N acetic acid in a volume (10-20 μL) sufficient to dissolve the peptide completely. The pH was then readjusted to about 7.0 by addition of an equal volume of 1N NaOH (10-20 μL), and the solution volume was then adjusted to 10 mL by addition of distilled water. To prepare the formulation for injection, the 10 mL peptide solution and the 50 mL solution of 16% gelatin were combined with mixing, and aliquots for injection were drawn into a 0.5 mL insulin syringe.
as §2

Solubility in water = assay type: physicochemical; details: preparation of injection solution
[3] = 62.5 μg/dose twice daily for 10 days in 16% gelatin
[4] = group of four mice, 62.5 μg/dose twice daily for 10 days in 16% gelatin
[5] = 41.5 μg s.c. every 12 hours for 10 days in 16% gelatin

Molecule	Weight of Mice Day 10 [1, 3]	histological abnormalities at autopsy [2]	Small bowel weight % body wt (small bowel; [4])	Small bowel weight Average (small bowel; [4])	Small bowel weight Day 10 (small bowel; [3])	solubility in water (Solubility in water)	intestinotrophic effect (small bowel; 41.5 μg s.c. every 12 hours for 10 days)	Small bowel weight Day 10 (small bowel; [5])	Weight of Mice Day 10 [1, 5]
HADGSFSDEMNTILDNLATRDFINWLIQTKITD [rat GLP-2]	23.7 gm and 25.7 gm and 27.1 gm and 25.4 gm	no histological abnormalities found	–	–	–	–	–	–	–
GLP-1: human GLP-1 (7-36 amide), custom synthesized by tBoc-based solid phase approach [reference compound]	24.8 gm and 22.8 gm and 26.5 gm	–	5.26 ± .2 % body wt	1.33 ± .04 gm	1.4 gm and 1.3 gm and 1.2 gm	relative greater solubility in water	–	–	–
B1	–	–	–	–	–	dissolved easily	modest	1.6 gm and 1.7 gm and 1.3 gm and 1.9 gm	26.6 gm and 26.2 gm and 24.5 gm and 24.7 gm and 25.8 gm
